Measured values reported in the supplement of paper PMC9170038.

Legend:
MS2 coat protein [1] = assay: apparent KD of MS2 coat protein, switch ON state; designed switch direction (-1 OFF switch, 1 ON switch): 1; higher = weaker reporter binding; details: FMN input: 0 or 200 uM; Eterna round: R93 (includes R88 designs)
How it was run: (§1)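 Designed RNA switches were transcribed on-chip from Illumina sequencing clusters. SNAP-549-labelled MS2 coat protein was titrated onto them in twofold steps from 0.7 or 1.5 nM to 3 µM in 100 mM Tris-HCl pH 7.5, 80 mM KCl, 4 mM MgCl2, either without or with constant ligand. Apparent KD reflects the per-design median of normalised cluster binding-curve fits.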

MS2 coat protein [2] = assay: apparent KD of MS2 coat protein, switch OFF state (with FMN for OFF switches, without FMN for ON switches); designed switch direction (-1 OFF switch, 1 ON switch): 1; higher = weaker reporter binding; details: FMN input: 0 or 200 uM; Eterna round: R93 (includes R88 designs)
How it was run: as §1

Sequence	apparent KD of MS2 coat protein (MS2 coat protein [1])	apparent KD of MS2 coat protein (MS2 coat protein [2])
AGGAAACAUGAGGAUCACCCAUGUAAAGAUGGAGGAGGAUAUCGAAAGAAAAGAAAGAAACGAGAAGGCCUAAAAG [59%, Flamingo, 2]	20.9 nM	99.2 nM
AGGAAACAUGAGGAUCACCCAUGUAAGAUAAACACAGGAUAUGCGAAAAGAAACAAAGAAGCAGAAGGGUGAAGAA [75%, Ex5 sub 1, 1]	20.6 nM	35.6 nM
AGGAAACAUGAGGAUCACCCAUGUAUAAAAAUGGAAGGAUAUACUAAGACGAAAGUCAUAGUAGAAGGUCUAAAAA [76%, Meechl, 10]	16.6 nM	20.7 nM
AGGAGACAUGAGGAUCACCCAUGUAGAAGGAUGGGAGGAUAUACAAAGACGAGAGUCAGAGUAGAAGGCCUAGGGA [salish99-ss1-183(!)]	24.2 nM	54.1 nM
AGGAGACAUGAGGAUCACCCAUGUGAGAAGAGGCGAGGAUAUCGAAAGAAAGAAGAGAAACGAGAAGGCGCGAGUA [salish99-SS1-018]	24.9 nM	40.8 nM
AGGAGACAUGAGGAUCACCCAUGUGAGAAGAGGCGAGGAUAUCGAAAGAAAGAAGAGAAACGAGAAGGCGCGAGUC [salish99-SS1-030]	25.6 nM	37 nM
AGGAGACAUGAGGAUCACCCAUGUGCGAGGUGAAGAGGAUAUAGAAGAAGAAGAAAGAAACUAGAAGGCUUAAAAA [JR_SameState1_Sub1]	122 nM	125 nM
AUAAAACAUGAGGAUCACCCAUGUAAAAAUAUGGGAGGAUAUGCGAAAUAAAAUAAAUAAGCAGAAGGCCUAAAAA [SS! MT 19]	11.9 nM	174 nM
AUAUGAGCUAUGGAGGAUAUCCAUAACAAGACAUGAGGAUCACCCAUGUAAGAAAGAAAAGAAUGGGAGAAGGCCAUAGCUCAAU [SS 2 M46]	37.9 nM	63.7 nM
AUAUGAGCUAUUGAGGAUAUCCAUAACAAGACAUGAGGAUCACCCAUGUAAUCAAAACAAUAAUGGGAGAAGGCAAUAGCUCAAU [SS 2 M48]	36.7 nM	44.1 nM
AUUACAUCUAGUUAGGAUAUCAGAUGUAAGACAUGAGGAUCACCCAUGUCCUAAGAAUAGGUAACUGAGAAGGAACAGGGAGUAU [JR_SS002_Sub418]	23.4 nM	26.8 nM
CAUAGACAUGAGGAUCACCCAUGUAGAAUUAUGGGAGGAUAUACAAAGACGAGAGUCAGAGUAGAAGGCCUAGGAU [salish99-ss1-162]	24.1 nM	35.6 nM
CAUCAUGCGCCUAAGGAUAUGUCCCACAAGACAUGAGGAUCACCCAUGUAGCCAAUUAAUACGGUGCAGAAGGUGGAGCGCAUGC [Qusotior]	315 nM	1080 nM
CAUCAUGCGCCUAAGGAUAUGUCUCACAAGACAUGAGGAUCACCCAUGUAGAAUAAAUAAAUGAUGCAGAAGGUGGAGUGCAUGA [Inares]	50.6 nM	785 nM
CAUCAUGCGCCUAAGGAUAUGUCUCACAAGACAUGAGGAUCACCCAUGUAGCCAAAAUAAACGAUGCAGAAGGUGGAGCACAUGC [Atrexe]	271 nM	602 nM
CAUCAUGCGUCUAAGGAUAUGUCUCACAAGACAUGAGGAUCACCCAUGUAGAAUAAAUAAAUGAUGCAGAAGGUGGAGCGCAUGC [Erzausis]	53.2 nM	283 nM
CGAAAGGAGAGAGAGGAUAUCCAAAGGAAAACAUGAGGAUCACCCAUGUAGAAGGUAGGAGAUUGGGAGAAGGCUCAAGAGAGGC [salish99-ss2-150]	18.5 nM	46.7 nM
CGAAAGGAGAGAGAGGAUAUCCAAAGGAAAACAUGAGGAUCACCCAUGUAGAAGGUAGGAGAUUGGGAGAAGGCUCAAGCAAAAG [salish99-ss2-155]	29 nM	26.4 nM
CGAUCACAUGAGGAUCACCCAUGUAUCGAUAAACGAGGAUAUGGGAGCGGGAUCUGUGGACCAGAAGGCGUACGGA [Celeus]	23.4 nM	38.7 nM
CGCCAAUUGGCACAGGAUAUGAGCAUGCUCACAUGAGGAUCACCCAUGUGAUUACCAACGCAAAAUCAGAAGGGUGCCCUCGUCA [Beanza]	69 nM	92.6 nM
CGGAGACAUGAGGAUCACCCAUGUGAGAAGAGGCGAGGAUAUCGAAAGAAAGAAGAGAAACGAGAAGGCGCGAGUG [salish99-SS1-074]	21.9 nM	32.9 nM
CUAGUUGCAUACUAGGAUAUACACUGGGUGACAUGAGGAUCACCCAUGUAAAAGCACAUUCGGUAGUAGAAGGAGUGUGCAGGUC [Ceedesbi]	92.6 nM	68.8 nM

Sequence	apparent KD of MS2 coat protein (MS2 coat protein [1])	apparent KD of MS2 coat protein (MS2 coat protein [2])
CUUAGGAAGAGAGAGGAUAUCCAAAGGAAAACAUGAGGAUCACCCAUGUAAAAGGUAGGAAAUUGGGAGAAGGCUCAAGAGAGAG [salish99-ss2-080]	26 nM	31.8 nM
GAAAAACAUGAGGAUCACCCAUGUAAAAAUAUGGGAGGAUAUUCAAACACGAAAGUCAAAGAAGAAGGCCUAAAAG [Garnet 2]	30.4 nM	207 nM
GAAAAACAUGAGGAUCACCCAUGUAGAAAUAUGGAAGGAUAUACAAAGACGAAACUGAAAGUAGAAGGUCUAAAAG [Garnet 95]	23.2 nM	22.1 nM
GAAAAACAUGAGGAUCACCCAUGUAGAAAUAUGGGAGGAUAUACAAAGACGAAAGUCAAAGUAGAAGGCCUCAAAG [JL S1 M-MoE mod 2 In the Red]	84.9 nM	78.2 nM
GAAAAACAUGAGGAUCACCCAUGUAGAAAUAUGGGAGGAUAUACAAAGUCGAAAGUCAAAGUAGAAGGCCUAAAAG [Garnet 26]	40.7 nM	170 nM
GAAAAACAUGAGGAUCACCCAUGUAGAAAUAUGGGAGGAUAUACGAAGACGAAAGUCGAGGUAGAAGGCCUAAAAG [Garnet 54]	34.7 nM	98 nM
GAAAAACAUGAGGAUCACCCAUGUAGAAAUAUGGGAGGAUAUACUAAGACGAAAGUCGAUGUAGAAGGCCUAAAAG [Same State 1.4g (Mat - Mod of Eli - )]	21.6 nM	42.8 nM
GAAAAACAUGAGGAUCACCCAUGUAGAGAUAUGGGAGGAUAUACGAAGACGAAAGACGAAGUAGAAGGCCUAAAAG [Garnet 58]	35.1 nM	180 nM
GAAAAACAUGAGGAUCACCCAUGUGAGAAUAUGGGAGGAUAUACAAGGACGAGAGUCAAGGUAGAAGGCCUAAAAG [Mat - Same State 1 - Eli mod - 29]	41.7 nM	247 nM
GAAAAACAUGAGGAUCACCCAUGUGAUAACAUGGGAGGAUAUACGAGGACGAUAGUCAAGGUAGAAGGCCUAAAAG [Garnet 60]	132 nM	24.6 nM
GAAAAACAUGAGGAUCACCCAUGUGUAAAUAUGGGAGGAUAUACGAAGACGUAAGUCAAAGUAGAAGGCCUAAAAG [Garnet 92]	24.7 nM	119 nM
GACCGACAUGAGGAUCACCCAUGUCGGAAAAGGCAAGGAUAUGGGCGGUACCAAUUUCGGUCAGAAGGUGCAAAAG [Aatisri]	12.4 nM	14.6 nM
GAGGACCUAGGAUAGGAUAUAUGAAUAAUUACAUGAGGAUCACCCAUGUCCAUUUAUAUGGGAACAUAGAAGGGUUCUGGUUAUC [SameState2 Malc#37]	36.9 nM	60.6 nM
GAGUACAUAGUACAGGAUAUAUGAAUAGUUACAUGAGGAUCACCCAUGUGCAUUUAUAUGCGCACAUAGAAGGGUGGUAGGUAUC [Mat - Same state - Malcolm Mod - D127]	38.8 nM	29.4 nM
GCAAAACAUGAGGAUCACCCAUGUCAACAAAAUCAAGGAUAUGAGCCGGCAUUGCCGGCAUCAGAAGGUGAACCUU [Gemaisinve]	96.1 nM	129 nM
GGAAAGGAGAGAGAGGAUAUCCAAAGGAAAACAUGAGGAUCACCCAUGUAGAAGGUAGGAAAUUGGGAGAAGGCUCAAGAAAGAG [salish99-ss2-138]	21 nM	57.2 nM
GGAAAUAAAAGAGAGGAUAUCCAAAGGAAAACAUGAGGAUCACCCAUGUAAAAGGAAGGAAAGUGGGAGAAGGCUCAAAAUAAGG [salish99-ss2-008]	29.6 nM	49.9 nM
GGAAGACAUGAGGAUCACCCAUGUGGGAUUAUGGGAGGAUAUACAAAGACGAGAGUCAGAGUAGAAGGCCUAGGAA [salish99-ss1-120(!)]	28.6 nM	79.1 nM
GGAGAACAUGAGGAUCACCCAUGUCGGAGAAGGCGAGGAUAUCGAAGGAGGAAGGAAGGACGAGAAGGCGCGGCAG [salish99-SS1-01]	15.9 nM	21.4 nM
GGCAAACAUGAGGAUCACCCAUGUCAGUGCUAUCAAGGAUAUGGGAUGACGGAAGGUCGGCCAGAAGGUGAGAAAG [Quededma]	233 nM	406 nM
GGCUGCAAUUAUGAGGAUAUGUUUGGAUGAACAUGAGGAUCACCCAUGUGGCGAUAGCCGUCUAUGCAGAAGGUGUAGUGGCGGC [Ertion]	25.9 nM	59.1 nM
GGGAGACAUGAGGAUCACCCAUGUGAGAAGAGGCGAGGAUAUCGAAAGAAAGAAGAGAAACGAGAAGGCGCGAGGU [salish99-SS1-055]	39.8 nM	72.3 nM
